Test results taken from the nanobody polyreactivity screen of Harvey et al. (2022).

Experiment: yeast display, Sf9 membrane polyspecificity reagent, FACS + sequencing; frameworks hold sequencing errors
Procedure, shortened: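 Synthetic nanobody libraries on Saccharomyces cerevisiae BJ5465 were galactose-induced for 36–48 hours, stained 1 hour at 4 °C with 10% biotinylated, detergent-solubilized Sf9 membrane reagent and enriched on streptavidin microbeads. FACS then separated cells into low and high (top ~1%) gates by anti-HA (expression) and streptavidin (reagent binding) fluorescence. Genes were colony-PCR amplified, MiSeq 2 × 250 sequenced and CDR-length filtered. A clone's polyreactivity label is that of its gate of origin.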

Sequence: QVQLVETGGGLFHAGGSLRLSCAASGRIFVGYAMGWYIQAPGKERELVAAINSGGRTNYADSVKGRFTISRYNAKNNVYLQMNSLKPEDTAVYYCAATLRPYSSFPNRYGYWGQGTQVTVSS
- polyreactivity (PSR sort gate): low polyreactivity

Sequence: QVQLVETGGGLVHAGGSLRISCAASGLTFRGNAMGWYRQAPGKERELVATISSGGITNYADSVKGRFTISRDNAKNTVYLQMNSLKPEDTAVYYCAADWFVHKPRYQNSFDYWGQGTQVTVSS
- polyreactivity (PSR sort gate): low polyreactivity

Sequence: QVQLVETGGGLVHAGGSLRLSCAASGSIFGYYTMGWYIQAPGKERELFAAITYSGGSTYYADSVKGRFTISRDNAKNTVYLQMNSLKPDDTAVYYCNAKSAAHRYVRRHDYWGQGTQVTVSS
- polyreactivity (PSR sort gate): low polyreactivity

Sequence: QVQLVETGGGLVKAGGSLRLSCAASGRTFGKYAMGWYRQETGKESELVAAITTRVVITYYADSVKGRFTISRDNAKNTVYLQMNSLKPEDTAVYYCAADPEKNYRPFNHYYYWGQGTQVTVSS
- polyreactivity (PSR sort gate): low polyreactivity

Sequence: QVQLVETGGGLVQAGCSLRLSCAASGSIFSYYAMGWSRQAPGKERELVAGITGSGGSTYADSVKGRFTISRDNAKNTVYLQMNSLKPEDTAVYYCAADLQRYWWWYEYWGQGTQVTVSS
- polyreactivity (PSR sort gate): high polyreactivity

Sequence: QVQLVETGGGLVQAGGILRLSCAASGSTFGYNAMGWYRQAPGKERELVASITWSSGSTYYADSVKGRFTISRDNAKNTVYLQMNSLKPEDSAVYYCYAKRFRHYGGYYYWGQGTQVTVSS
- polyreactivity (PSR sort gate): low polyreactivity

Sequence: QVQLVETGGGLVQAGGRLRLSCAASGSTFKNNAMGWSRQAPGKEREFVAGITRRGTSTYYADSVKGRFTISRDNAKNTVYLQMNSLKPEDTAVYYCNARLRARSTIKLDYWGQGTQVTVSS
- polyreactivity (PSR sort gate): high polyreactivity

Sequence: QVQLVETGGGLVQAGGSHRLSCAASGLTFYTYAMGWYRQAPGKERELVAAISTNGGSKYYADSVKGRFTISRDNAKNTVYLQRNCLKPEDTAVYYCAIEGGTYRIFNYWGQGTQVTVSS
- polyreactivity (PSR sort gate): low polyreactivity

Sequence: QVQLVETGGGLVQAGGSHRLSCAASGSTFDAYAMGWYRQAPGKETELVAGISIVGSTNYADSVKGRFTISRDNAKNTVYLKMNSLKPEDTAVLYCAADRDWQYSFRPSVYGYDYVYWGQGTQVTVSS
- polyreactivity (PSR sort gate): low polyreactivity

Sequence: QVQLVETGGGLVQAGGSLRLSCAASGFIFPGNMGWDRQAPGKDRELVAAISWSGGSTRYADSVKGRFTISRDNAKNTVYLQMNSLKPEDTAVYYCAASLSGKRFTKRYYWGQGTQVTVSS
- polyreactivity (PSR sort gate): high polyreactivity

Sequence: QVQLVETGGGLVQAGGSLRLSCAASGFIFVLNAMGWDRQAPGKEMEFVAAITRSGGSTYYADSVKGRFTISRDNAKNNVYLPMNSLKPEVTAVYYCAVLYHSRDRYTYRDEDYWGQGTQVTVSS
- polyreactivity (PSR sort gate): low polyreactivity

Sequence: QVQLVETGGGLVQAGGSLRLSCAASGFIGSNTMGWYRQAPGKERELVAAISWSGGSTYYADSVKGRFTISRDNAKNTVYLQMNSLKPEDSAVYYCAARRNSRARRTFGYWGQGTQVSVSS
- polyreactivity (PSR sort gate): high polyreactivity

Sequence: QVQLVETGGGLVQAGGSLRLSCAASGFIQSGYAMGWYRQAPGKERELVATITWRDGSTYYADSVKGRYTISRDNAKNTVYLQKNSLKPEDTEVYYCAVAAYSRRSPYYHYNYWGQGTQVTVSS
- polyreactivity (PSR sort gate): high polyreactivity

Sequence: QVQLVETGGGLVQAGGSLRLSCAASGFTFRFYAMGWSRQPPGKERELVAAISRGGSTYYADSVKVRFTISRYNEKNTVYLQMNSLKPEDTAVYYCAKRGRYGGYWGQGTQVTVSS
- polyreactivity (PSR sort gate): high polyreactivity

Sequence: QVQLVETGGGLVQAGGSLRLSCAASGFTLYYYARGWYRQAPGKERELVAAITARGVSTYADSVKGRFTISRDNAKNTVYLQMNSLKPEDTAVYYCAADRRYNVIGEFGYWGQGTQVTVSS
- polyreactivity (PSR sort gate): low polyreactivity

Sequence: QVQLVETGGGLVQAGGSLRLSCAASGGIFVANAMGWYRQAPGKERELVAAISKRGGSTTYADSVKGRFTISRDNAKHTVYLQMNRLKPEDTAVYYCAKVVSPVYLYPSGYDYWGQGTQVTVSS
- polyreactivity (PSR sort gate): low polyreactivity

Sequence: QVQLVETGGGLVQAGGSLRLSCAASGITLYFYAMGWSRQAPGKEREMVAGISGSVGSTHYADSVKGRFTISRDNAKNTVYSQMNSLKPEDTAVYYCDAAQVGYYVASVTYGYWGQGTQVTVSS
- polyreactivity (PSR sort gate): high polyreactivity

Sequence: QVQLVETGGGLVQAGGSLRLSCAASGLIFTINAMGWYRQAPGKERELVAAITNGDSTHYADSVKGRFTISRDNAKNTVYLQMNSLKPEDTAVYYCAARSYTYYGLRFGYWGQGTQVTVSS
- polyreactivity (PSR sort gate): high polyreactivity

Sequence: QVQLVETGGGLVQAGGSLRLSCAASGLTFYYYTMGWYRQAPGKERELVAAITSGGSTYYADSVKGRFTISRDNAKNTVYLQMNSLKPEDTAVYYCAAVPSRYGRYRYYYWGQGTQVTVSS
- polyreactivity (PSR sort gate): high polyreactivity

Sequence: QVQLVETGGGLVQAGGSLRLSCAASGNTFGDYAMGWYRQAPGKERELVAAISRSGGSTSYADSVKGRFTISRDNAKNTVYLQMNSLKPADTAVYYCAAYWQRFGYDYWGQGTQVTGSS
- polyreactivity (PSR sort gate): low polyreactivity

Sequence: QVQLVETGGGLVQAGGSLRLSCAASGNTFKYYAMGWYRQAPGKERELVAAISYSGGSTYYADSVKGRFTISRDNAKNTVYLQMNSLKPEDTAVYYCAADLDSERYYWGQGTQVTVSS
- polyreactivity (PSR sort gate): low polyreactivity

Sequence: QVQLVETGGGLVQAGGSLRLSCAASGRIFPFYAMGWYRQAPGKERELVAAISWNGGSTFYADSVKGRFTISRDNAKNTVYLQMHSLKPEDTAVYYCNADFRPAYTYDYWGQGTQVTVSS
- polyreactivity (PSR sort gate): low polyreactivity

Sequence: QVQLVETGGGLVQAGGSLRLSCAASGRIFTYYAMGWYRQAPGKERELVAGISSRGTRTYYADSVKGRFTISRDNAKNTVYLQMNSLKPDDTAVYYCAAYPQFWYWDYNYWGQGTQVTVSS
- polyreactivity (PSR sort gate): high polyreactivity

Sequence: QVQLVETGGGLVQAGGSLRLSCAASGRIFYYYAMGWYRQAPGKERELVAAITRGGGTYYADSVKGRFTISRDNAKNTVYLQMYSLKPEDTAVYYCAKRGPPESHHPYRYRFDYWGQGPQVTVSS
- polyreactivity (PSR sort gate): low polyreactivity

Sequence: QVQLVETGGGLVQAGGSLRLSCAASGRIIDTYAMGWYRQAPGKERELVAAITRRGGSTYYADSVKGRFTISRDNAKNTVYLQMNSLKPEDTAVYYCAKSLVNRHYDYWGQGTQVTVSS
- polyreactivity (PSR sort gate): low polyreactivity

Sequence: QVQLVETGGGLVQAGGSLRLSCAASGRTFKFYAMGWYRQAPGKEREFVAVINRSGVNTHYADSVKVRFTISRDNAKNTVYLQMNSLKPEDTAVYYCAKYVYPLDHVAGYDYWGQGTQVTVSS
- polyreactivity (PSR sort gate): low polyreactivity

Sequence: QVQLVETGGGLVQAGGSLRLSCAASGRTFSGYAMGWSRQAPGKERELVASITWSGGSTYYADSVKGRFTISRDNAKNTVYLQMNSLKPDDTAVYYCARDSPRGRVGFNYWGQATQVTVSS
- polyreactivity (PSR sort gate): low polyreactivity

Sequence: QVQLVETGGGLVQAGGSLRLSCAASGRTIVYYDMGWYRQAPGKEREFVSTITSSGGSTYYADSVKGRFTISRDNAKNTVYVQMNSLKPEDTAVYYCAAYPYIRYSKVSKYYYWGQGTQVTVSS
- polyreactivity (PSR sort gate): high polyreactivity

Sequence: QVQLVETGGGLVQAGGSLRLSCAASGRTLYYYAMGWYRQAPGKERELVAAITRSGGSTYYADSVKGRFTISRDNAKNTVYLQMNSLKPEDTEVYYCNKYGYKGGVGYDYWGQGTQVTVSS
- polyreactivity (PSR sort gate): high polyreactivity

Sequence: QVQLVETGGGLVQAGGSLRLSCAASGSIFASYAMGWYRQAPGKERELVAAITTSGGRTYYADSVKGRFTISRDNAKNTVYLQMNSLKPEDTAVYYCAVRYRGYGYDWGQGTQVTVSS
- polyreactivity (PSR sort gate): high polyreactivity

Sequence: QVQLVETGGGLVQAGGSLRLSCAASGSIFERYAMGWYRQAPGKEREFVATITSGGGRTYYADSVKGRFTISRDNAKNTVYLQMNSLKPEDTAVYYCAAASYRRQPFNYWGQGTQVTVSS
- polyreactivity (PSR sort gate): high polyreactivity

Sequence: QVQLVETGGGLVQAGGSLRLSCAASGSIFEYNGMGWYRQAPGKERELVAAITTTGTTDYADSVKGRFTISRDNAKNTVYLLMNSLKPEDTAVYYCAADYTYYYKGEYDYWGQGTQVTVSS
- polyreactivity (PSR sort gate): low polyreactivity

Sequence: QVQLVETGGGLVQAGGSLRLSCAASGSIFGGYAMGWYRQAPGKERELVAGITRSGGSTYYADSVKGRFTISRDNAKNTVYLQMNSLKPEDTAVYYCAVEIQFYRSPRKVRSYDYWGQGTQVTVSS
- polyreactivity (PSR sort gate): low polyreactivity

Sequence: QVQLVETGGGLVQAGGSLRLSCAASGSIFITYLMGWNRQAPGKERELVDGISRSGGSTYYADSVKGRFTISRDNAMNTVYLQMNSLKPEDTAVYYCAAFFLRRPGSSGLRLLGQGTQVTVSS
- polyreactivity (PSR sort gate): high polyreactivity

Sequence: QVQLVETGGGLVQAGGSLRLSCAASGSIFTRYVMGWYRQAPGKERELVAAISRSSGRTYYADSVKGRFTISRDNAKNTVYLQMNSLKPEDTAVYYCAAYAVESYKYDYWGQGTQVTVSS
- polyreactivity (PSR sort gate): high polyreactivity

Sequence: QVQLVETGGGLVQAGGSLRLSCAASGSIFVPYGMGWYRQAPGKERELVAAIRKRGSSTYYADSVKWRFTNSRDNAKNTVYLQMNSLKPEDTAVYYCASTWVSVWYRYDYWGQGTQVTVSS
- polyreactivity (PSR sort gate): high polyreactivity

Sequence: QVQLVETGGGLVQAGGSLRLSCAASGSIQWNAMGWYRQAPGKERELVAVINTGGSTYADSVKGRFTISRDNAKNTVYLQMNMLKPEDTAVFYCAARVPFTLLKGKQYGYWGQGTQVTVSS
- polyreactivity (PSR sort gate): low polyreactivity

Sequence: QVQLVETGGGLVQAGGSLRLSCAASGSNFLPNAMGWYRQAPGKERELVARISYSGGNTYYADSVKGRFTISRDNAKNTVYLQMNSLKPEDTAVYYCATSHYYNDYTGRRYYYWGQGTQVTVSS
- polyreactivity (PSR sort gate): high polyreactivity

Sequence: QVQLVETGGGLVQAGGSLRLSCAASGSTFGINAMGWYRQAPGKERELVAAITASGCRTYYADSVKGRFTISRDNAKNTVYLQMNSLKPEDNAVYYCAARGTYYRRYDYWGQGTQVTVSS
- polyreactivity (PSR sort gate): low polyreactivity

Sequence: QVQLVETGGGLVQAGGSLRLSCAASGSTFQPYAMGWYRQAPGKERELVAAIRSIAGSTYYADSVKGRFTISRDNAKITVYLQMNILKPDDTAVYYCAADWWRVEMDYWGQGTQVTVSS
- polyreactivity (PSR sort gate): low polyreactivity

Sequence: QVQLVETGGGLVQAGGSLRLSCAASGSTFVYNAMGWYRQAPGKERELVASITRSGSSTYYADSVKGRFTISRDNAKNTVYLQMNSLKPEDTAVYYCAVRYSVLSNYRYYYWGQGTQVTVSS
- polyreactivity (PSR sort gate): low polyreactivity

Sequence: QVQLVETGGGLVQAGGSLRLSCAASGTIFKKYAMGWYRQAPGKERELVAAITRGTYYADSVKGRFTISRDNAKNTVYLQMNSLIPEDTAVYYFNREYWGRGYYRVRGEYDYWGQGTQVTVSS
- polyreactivity (PSR sort gate): low polyreactivity

Sequence: QVQLVETGGGLVQAGGSLRLSCAATGLNFWLYAMAWYRQAPGKEREFVAVISWSGGTTYYADSVKGLFTISRDYAKNTVYLTMTTLIPEDTAVYFCAAQVCYYTNYREFDYWGQGTQVTVSS
- polyreactivity (PSR sort gate): low polyreactivity
